# In publication PMC8115288:
# B1: GST-CTD (C-terminal domain of HIV-1 integrase, aa 201-288) [HIV-1 His6-SUMO-INI1_(183-304) [not stated] (parent)
# chain 1: VDIIATDIQTKELQKQITKIQNFRVYYRDSRNPLWKGPAKLLWKGEGAVVIQDNSDIKVVPRRKAKIIRDYGKQMAGDDCVASRQDED
# chain 2: PEVLVPIRLDMEIDGQKLRDAFTWNMNEKLMTPEMFSEILCDDLDLNPLTFVPAIASAIRQQIESYPTDSILEDQSDQRVIIKLNIHVGNISLVDQFEWDMSEKENSPEKFALKLCSELGLG
# Variants of: B1
# Experiment: Alpha assay
# Conditions: with His6-SUMO-INI1_(183-304); low salt conditions; parent: 100; read off a plot
row,Variant,percent of parent
1,chain 1 R28A,8 % of WT
